B1: Speedy protein E4 (Homo sapiens), A6NLX3 (parent)
chain: MASGQARPPFEEESPQPSTTVRSPEVVVDDEVPGPSAPWIDPSPQPQSLGLKRKSEWSDESEEELEEELELERAPEPEDTWVVETLCGLKMKLKRKRASSVLPEHHEAFNRLLGDPVVQKFLAWDKDLRVSDKYLLAMVIAYFSRAGLFSWQYQRIHFFLALYLASDMEEDNQAPKQDIFSFLYGKNYSQRPLFHKLRYQLLCSMRWRTWVSPEEMEEIQAYDPEHWVWARDRTLIS
B2: Protein FAM90A1 (Homo sapiens), Q86YD7 (parent)
chain: MMARRDPKPGAKRLVRAQTLQKQRRAPVGPRAPPPDEEDPRLKCKNCEAFGHTARSTRCPMKCWKAALVPPNFGEKEGKENLKPWKPQVEANPGPLNKDKGEKEERPRPQDPQRKALLHIFSRKPPEKPLPNQKGSTESSDYLRVASGPMPVHTTSKRPRVDPVLSDRSATEMSDRGSVLASLSPLRKASLSSSSSLGPKERQTGAAADIPQTAVRHQGPEPLLVVKPTHSSPAGGCREVPQAASKTHGLLQAVSPQAQDKRPAVTSQPCPPAATHSLGLGSNLSFGPGAKRSAPAPIQACLNFPKKPRLGPFQIPESAIQGGELGAPENLQPPPAATELGPRTSPQTGTRTPAQVLSGDRQPPHSRPCLPTAQACTMSHHPAASHDGAQPLRVLFRRLENGRWSSSLLTAPSFHSPEKPGAFLAQSPHVSEKSEGPCVRVPPSVLYEDLQVPSSSEDSDSDLE

Variants of: B1
Settings: with brd4_human BRD4, O60885

Variant	effect of a mutation on the interaction
MASGQARPPFEEESPQPSTTVRSPEVVVDDEVPGPSAPWIDPSPQPQSLGLKRKSEWSDESEEELEEELELERAPEPEDTWVDETDCGLKDKDKRKRASSVLPEHHEAFNRLLGDPVVQKFLAWDKDLRVSDKYLLAMVIAYFSRAGLFSWQYQRIHFFLALYLASDMEEDNQAPKQDIFSFLYGKNYSQRPLFHKLRYQLLCSMRWRTWVSPEEMEEIQAYDPEHWVWARDRTLIS [V83D;L86D;M91D;L93D]	disrupting interaction strength

Variants of: B2
Settings: with brd4_human BRD4, O60885

Variant	effect of a mutation on the interaction
MMARRDPKPGAKRLVRAQTLQKQRRAPVGPRAPPPDEEDPRLKCKNCEAFGHTARSTRCPMKCWKAALVPPNFGEKEGKENLKPWKPQVEANPGPLNKDKGEKEERPRPQDPQRKALLHIFSRKPPEKPLPNQKGSTESSDYLRVASGPMPVHTTSKRPRVDPVLSDRSATEMSDRGSVLASLSPLRKASLSSSSSLGPKERQTGAAADIPQTAVRHQGPEPLLVVKPTHSSPAGGCREVPQAASKTHGLLQAVSPQAQDKRPAVTSQPCPPAATHSLGLGSNLSFGPGAKRSAPAPIQACLNFPKKPRLGPFQIPESAIQGGELGAPENLQPPPAATELGPRTSPQTGTRTPAQVLSGDRQPPHSRPCLPTAQACTMSHHPAASHDGAQPLRDLDRRLENGRDSDSLLTAPSFHSPEKPGAFLAQSPHVSEKSEGPCVRVPPSVLYEDLQVPSSSEDSDSDLE [V394D;F396D;W404D;S406D]	disrupting interaction strength

Reference: IntAct's records for PubMed 35016035
